Results from patent US20210355207A1 (ACADEMIA SINICA, published 2021).

Experiments:
[1] = biological target: T1, synthetic peptide LKNQNQELPEDVNPAKKENYLSEQD (SEQ ID NO: 2); assay: ELISA screen of hybridoma clones on peptide
T1 construct: Used to screen the hybridoma clones by ELISA; also called another synthetic peptide
T1 peptide: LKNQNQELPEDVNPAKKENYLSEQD

[2] = biological target: T2, human advillin-flag (hAvil-flag), exogenously expressed in 293 cells (human, UniProt O75366 1-819); assay: western blot of lysates of 293 cells transfected with hAvil-flag or vector control
T2 construct: also called exogenous expression of human advillin clone; expression plasmid of human advillin; not shown: flag tag from the p3xFLAG-CMV14 vector
T2 sequence (looked up): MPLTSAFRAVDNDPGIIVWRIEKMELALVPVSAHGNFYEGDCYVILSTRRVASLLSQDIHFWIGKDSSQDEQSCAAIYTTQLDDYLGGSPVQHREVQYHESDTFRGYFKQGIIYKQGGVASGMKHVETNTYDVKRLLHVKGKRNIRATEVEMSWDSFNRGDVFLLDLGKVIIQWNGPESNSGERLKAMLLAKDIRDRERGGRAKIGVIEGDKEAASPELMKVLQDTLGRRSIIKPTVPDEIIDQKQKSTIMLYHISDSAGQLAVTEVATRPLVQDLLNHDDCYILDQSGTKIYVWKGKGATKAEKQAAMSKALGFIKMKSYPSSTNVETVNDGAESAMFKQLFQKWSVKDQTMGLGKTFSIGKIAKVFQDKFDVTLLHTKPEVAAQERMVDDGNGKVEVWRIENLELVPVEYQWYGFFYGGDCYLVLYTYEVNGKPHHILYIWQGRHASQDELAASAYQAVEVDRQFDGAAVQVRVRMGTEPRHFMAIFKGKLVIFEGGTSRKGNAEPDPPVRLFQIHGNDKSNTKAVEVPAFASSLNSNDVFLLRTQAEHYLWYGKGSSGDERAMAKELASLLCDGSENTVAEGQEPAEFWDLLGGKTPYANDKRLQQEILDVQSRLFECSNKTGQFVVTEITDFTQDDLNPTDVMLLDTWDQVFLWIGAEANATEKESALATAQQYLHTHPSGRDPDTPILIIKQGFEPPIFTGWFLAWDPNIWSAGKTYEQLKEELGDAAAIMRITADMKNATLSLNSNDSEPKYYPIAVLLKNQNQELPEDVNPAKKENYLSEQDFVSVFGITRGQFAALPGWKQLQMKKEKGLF
Source text: FIG. 6 The monoclonal antibody of human advillin specifically recognized exogenous expression of human advillin in 293 cells. Human advillin clone was tagged with flag, and the construct of human advillin-flag (hAvil-flag) or vector control (flag) were transfected into 293 cells. The lysates were detected with the monoclonal antibody of human advillin and flag antibody respectively. The molecular weight of human advillin is predicted as 92 KDa and the detected signals were corresponded to predicted size of hAvil-flag around 100 KDa. The top signal is supposed as aggregated forms as detected in the flag-antibody recognized signal.
Primary antibodies used in western blot were rabbit polyclonal anti-mouse advillin (1 μg/ml), mouse monoclonal anti-human advillin, and rabbit anti-albumin (1:1000, both GeneTex, San Antonio, Tex., USA). […] Cerebrospinal fluid (CSF) samples or protein from cell lysates separated by SDS-PAGE were transferred onto PVDF membranes by using a Mini Trans-Blot Electrophoretic Transfer Cell (Bio-rad, CA, USA). […] Enhanced chemiluminescence (ECL) involved the Immobilon ECL Kit (Millipore, MA, USA) and signals were detected by using the BioSpectrum Auto Imaging System (UVP, CA, USA). […]

B1: monoclonal antibody of human advillin hAvil, produced by the hybridoma YCC-S1 (antibody, V domains shown)
VH: EVKLEESGGGLVQPGGSLKLSCVASGFAFSNSWMSWVRQSPEKGLEWVAEIRLKSDNYASHYAESVKGRFTISRDDSKSRLYLQMNALRAEDTGIYYCSDGTWFTYWGQGTLVTVST
VL: DIVMSQSPSSLAVSVGEKVTMNCKSSQSLLYRANQKNYLAWYQQKPGQSPKLLIYWASTRESGVPDRFTGSGSGTDFTLTISSVKAEDLAVYYCQQYYSHPFTFGSGTKLKIK
notes: also called mouse monoclonal anti-human advillin; anti-advillin antibody
[1]
  binding result: binds
[2]
  binding result: binds
